Laboratory results taken from US20240141045A1 (PRECIGEN, published 2024).
Each block holds one binder with its values, some of them ahead of it.

Tests used:
PD-1 Fc fusion protein [1] = biological target: T1, PD-1 Fc fusion protein (UniProt Q15116 25-167, limits assumed); experiment: SPR (Biacore 3000), PD-1 Fc immobilised on CM5 chip, fusion protein injected
T1 construct: Antigen immobilised on the CM5 chip in all PD-1 SPR assays; also called PD-1 fused to human Fc region; PD-1-Fc antigen; not shown: human Fc region
T1 sequence (Q15116 25-167 limits assumed): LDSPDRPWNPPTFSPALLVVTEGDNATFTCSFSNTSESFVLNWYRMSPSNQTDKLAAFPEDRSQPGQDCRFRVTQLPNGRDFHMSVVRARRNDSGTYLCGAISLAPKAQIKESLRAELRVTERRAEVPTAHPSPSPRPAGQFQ
Description: Surface plasma resonance (SPR) analysis was performed using Biacore3000, CM5 chip, an amine-coupling kit, 10×HBS-P running buffer and Glycine for regeneration (GE Healthcare). […] Dissociation was allowed to proceed followed by a pulse of 10 mM Glycine (pH 1.5) for regeneration of the chip surface.

PD-1 Fc fusion protein [2] = biological target: T1, PD-1 Fc fusion protein; experiment: SPR (Biacore), PD1-Fc immobilised on CM5, 1:1 Langmuir model with mass transfer
Description: PD1-Fc antigen and reference antigen was immobilized on Biacore CM5 surface. […] Kinetics data was evaluated for 1:1 model: Langmuir with mass transfer.

TGF-β1 [3] = biological target: T2, TGF-β1 (UniProt P01137 279-390); experiment: cell-based or functional assay
T2 sequence (P01137 279-390 limits assumed): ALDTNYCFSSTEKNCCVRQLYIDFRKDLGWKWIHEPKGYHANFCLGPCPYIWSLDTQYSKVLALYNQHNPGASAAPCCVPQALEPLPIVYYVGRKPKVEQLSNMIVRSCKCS

TGF-β1 [4] = biological target: T2, TGF-β1; experiment: cell-based or functional assay; remark: listed apart in the source

B2: Anti-PD1 (nVL1-nVH3).IgG4-TGFbRII (antibody)
heavy: QVQLVESGGGVVQPGRSLRLDCKASGITFSNSGMHWVRQAPGKGLEWVAVIWYDGSKRYYADSVKGRFTISRDNSKNTLFLQMNSLRAEDTAVYYCATNNDYWGQGTLVTVSSASTKGPSVFPLAPCSRSTSESTAALGCLVKDYFPEPVTVSWNSGALTSGVHTFPAVLQSSGLYSLSSVVTVPSSSLGTKTYTCNVDHKPSNTKVDKRVESKYGPPCPSCPAPEFLGGPSVFLFPPKPKDTLMISRTPEVTCVVVDVSQEDPEVQFNWYVDGVEVHNAKTKPREEQFNSTYRVVSVLTVLHQDWLNGKEYKCKVSNKGLPSSIEKTISKAKGQPREPQVYTLPPSQEEMTKNQVSLTCLVKGFYPSDIAVEWESNGQPENNYKTTPPVLDSDGSFFLYSRLTVDKSRWQEGNVFSCSVMHEALHNHYTQKSLSLSPGKGGGGSGGGGSIPPHVQKSVNNDMIVTDNNGAVKFPQLCKFCDVRFSTCDNQKSCMSNCSITSICEKPQEVCVAVWRKNDENITLETVCHDPKLPYHDFILEDAASPKCIMKEKKKPGETFFMCSCSSDECNDNIIFSEEYNTSNPD
light: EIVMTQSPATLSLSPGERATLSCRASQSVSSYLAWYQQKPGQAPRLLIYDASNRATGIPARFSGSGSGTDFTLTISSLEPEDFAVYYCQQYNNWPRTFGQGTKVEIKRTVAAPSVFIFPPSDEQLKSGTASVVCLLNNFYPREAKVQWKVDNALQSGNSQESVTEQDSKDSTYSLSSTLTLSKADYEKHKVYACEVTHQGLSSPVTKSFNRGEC
- Kd (PD-1 Fc fusion protein [2]): 0.0277 nM
- IC50, inhibition of TGF-β1 induced reporter gene activity (HEK-Blue TGF-β cells, SEAP) (TGF-β1 [3]): 0.0107 nM

B5: Anti-PD1 (VL5-VH6).IgG4-Linker8-TGFbRII (antibody)
heavy: QVQLVESGGGVVQPGRSLRLDCKASGITFSNSGMHWVRQAPGKGLEWVAVIWYDGSKRYYADSVKGRFTISRDNSKNTLFLQMNSLRAEDTAVYYCATNDDYWGQGTLVTVSSASTKGPSVFPLAPCSRSTSESTAALGCLVKDYFPEPVTVSWNSGALTSGVHTFPAVLQSSGLYSLSSVVTVPSSSLGTKTYTCNVDHKPSNTKVDKRVESKYGPPCPSCPAPEFLGGPSVFLFPPKPKDTLMISRTPEVTCVVVDVSQEDPEVQFNWYVDGVEVHNAKTKPREEQFNSTYRVVSVLTVLHQDWLNGKEYKCKVSNKGLPSSIEKTISKAKGQPREPQVYTLPPSQEEMTKNQVSLTCLVKGFYPSDIAVEWESNGQPENNYKTTPPVLDSDGSFFLYSRLTVDKSRWQEGNVFSCSVMHEALHNHYTQKSLSLSPGKDPGSGGSVPLGSGGSNPGSIPPHVQKSVNNDMIVTDNNGAVKFPQLCKFCDVRFSTCDNQKSCMSNCSITSICEKPQEVCVAVWRKNDENITLETVCHDPKLPYHDFILEDAASPKCIMKEKKKPGETFFMCSCSSDECNDNIIFSEEYNTSNPD
light: not shown
- IC50, TGF-β1 neutralization activity (HEK-Blue TGF-β reporter cells) (TGF-β1 [4]): 0.0012 nM

B6: Anti-PD1 (VL5-VH6).IgG4-Linker7-TGFbRII (antibody)
heavy: QVQLVESGGGVVQPGRSLRLDCKASGITFSNSGMHWVRQAPGKGLEWVAVIWYDGSKRYYADSVKGRFTISRDNSKNTLFLQMNSLRAEDTAVYYCATNDDYWGQGTLVTVSSASTKGPSVFPLAPCSRSTSESTAALGCLVKDYFPEPVTVSWNSGALTSGVHTFPAVLQSSGLYSLSSVVTVPSSSLGTKTYTCNVDHKPSNTKVDKRVESKYGPPCPSCPAPEFLGGPSVFLFPPKPKDTLMISRTPEVTCVVVDVSQEDPEVQFNWYVDGVEVHNAKTKPREEQFNSTYRVVSVLTVLHQDWLNGKEYKCKVSNKGLPSSIEKTISKAKGQPREPQVYTLPPSQEEMTKNQVSLTCLVKGFYPSDIAVEWESNGQPENNYKTTPPVLDSDGSFFLYSRLTVDKSRWQEGNVFSCSVMHEALHNHYTQKSLSLSPGKDPGSGSVPLGSGSNPGSIPPHVQKSVNNDMIVTDNNGAVKFPQLCKFCDVRFSTCDNQKSCMSNCSITSICEKPQEVCVAVWRKNDENITLETVCHDPKLPYHDFILEDAASPKCIMKEKKKPGETFFMCSCSSDECNDNIIFSEEYNTSNPD
light: not shown
- IC50, TGF-β1 neutralization activity (HEK-Blue TGF-β reporter cells) (TGF-β1 [4]): 0.0011 nM

B9: Anti-PD1 (VL5-VH6).IgG4-Linker12-TGFbRII (antibody)
heavy: QVQLVESGGGVVQPGRSLRLDCKASGITFSNSGMHWVRQAPGKGLEWVAVIWYDGSKRYYADSVKGRFTISRDNSKNTLFLQMNSLRAEDTAVYYCATNDDYWGQGTLVTVSSASTKGPSVFPLAPCSRSTSESTAALGCLVKDYFPEPVTVSWNSGALTSGVHTFPAVLQSSGLYSLSSVVTVPSSSLGTKTYTCNVDHKPSNTKVDKRVESKYGPPCPSCPAPEFLGGPSVFLFPPKPKDTLMISRTPEVTCVVVDVSQEDPEVQFNWYVDGVEVHNAKTKPREEQFNSTYRVVSVLTVLHQDWLNGKEYKCKVSNKGLPSSIEKTISKAKGQPREPQVYTLPPSQEEMTKNQVSLTCLVKGFYPSDIAVEWESNGQPENNYKTTPPVLDSDGSFFLYSRLTVDKSRWQEGNVFSCSVMHEALHNHYTQKSLSLSPGKDPVLEREDKVTTSKNPGSIPPHVQKSVNNDMIVTDNNGAVKFPQLCKFCDVRFSTCDNQKSCMSNCSITSICEKPQEVCVAVWRKNDENITLETVCHDPKLPYHDFILEDAASPKCIMKEKKKPGETFFMCSCSSDECNDNIIFSEEYNTSNPD
light: not shown
- IC50, TGF-β1 neutralization activity (HEK-Blue TGF-β reporter cells) (TGF-β1 [4]): 0.0027 nM

B10: Anti-PD1 (VL5-VH6).IgG4-Linker10-TGFbRII (antibody)
heavy: QVQLVESGGGVVQPGRSLRLDCKASGITFSNSGMHWVRQAPGKGLEWVAVIWYDGSKRYYADSVKGRFTISRDNSKNTLFLQMNSLRAEDTAVYYCATNDDYWGQGTLVTVSSASTKGPSVFPLAPCSRSTSESTAALGCLVKDYFPEPVTVSWNSGALTSGVHTFPAVLQSSGLYSLSSVVTVPSSSLGTKTYTCNVDHKPSNTKVDKRVESKYGPPCPSCPAPEFLGGPSVFLFPPKPKDTLMISRTPEVTCVVVDVSQEDPEVQFNWYVDGVEVHNAKTKPREEQFNSTYRVVSVLTVLHQDWLNGKEYKCKVSNKGLPSSIEKTISKAKGQPREPQVYTLPPSQEEMTKNQVSLTCLVKGFYPSDIAVEWESNGQPENNYKTTPPVLDSDGSFFLYSRLTVDKSRWQEGNVFSCSVMHEALHNHYTQKSLSLSPGKDPGVLEREDVPTTSYPNPGSIPPHVQKSVNNDMIVTDNNGAVKFPQLCKFCDVRFSTCDNQKSCMSNCSITSICEKPQEVCVAVWRKNDENITLETVCHDPKLPYHDFILEDAASPKCIMKEKKKPGETFFMCSCSSDECNDNIIFSEEYNTSNPD
light: not shown
- IC50, TGF-β1 neutralization activity (HEK-Blue TGF-β reporter cells) (TGF-β1 [4]): 0.0019 nM

More lines, now with the values ahead:

- Kd (PD-1 Fc fusion protein [1]): 7.77 nM
B1: Anti-PD1(VH7-VL6) scFv-TGFβRII (scFv)
chain 1: QVQLVQSGVEVKKPGASVKVSCKASGYTFTNYYMYWVRQAPGQGLEWMGGINPSNGGTNFNEKFKNRVTLTTDSSTTTAYMELKSLQFDDTAVYYCARRDYRFDMGFDYWGQGTTVTVSS
chain 2: EIVLTQSPATLSLSPGERATLSCRASKGVSTSGYSYLHWYQQKPGQAPRLLIYLASYLESGVPARFSGSGSGTDFTLTISSLEPEDFAVYYCQHSRDLPLTFGGGTKVEIK
chain 3: GGGGSGGGGSIPPHVQKSVNNDMIVTDNNGAVKFPQLCKFCDVRFSTCDNQKSCMSNCSITSICEKPQEVCVAVWRKNDENITLETVCHDPKLPYHDFILEDAASPKCIMKEKKKPGETFFMCSCSSDECNDNIIFSEEYNTSNPD

- Kd (PD-1 Fc fusion protein [2]): 0.147 nM
- IC50, inhibition of TGF-β1 induced reporter gene activity (HEK-Blue TGF-β cells, SEAP) (TGF-β1 [3]): 0.0151 nM
B3: Anti-PD1 (nVL1-nVH7).IgG4-TGFbRII (antibody)
heavy: QVQLVESGGGVVQPGRSLRLDCKASGFTFSNSGMHWVRQAPGKGLEWVAVIWYDGSKRYYADSVKGRFTISRDNSKNTLFLQMNSLRAEDTAVYYCATNNDYWGQGTLVTVSSASTKGPSVFPLAPCSRSTSESTAALGCLVKDYFPEPVTVSWNSGALTSGVHTFPAVLQSSGLYSLSSVVTVPSSSLGTKTYTCNVDHKPSNTKVDKRVESKYGPPCPSCPAPEFLGGPSVFLFPPKPKDTLMISRTPEVTCVVVDVSQEDPEVQFNWYVDGVEVHNAKTKPREEQFNSTYRVVSVLTVLHQDWLNGKEYKCKVSNKGLPSSIEKTISKAKGQPREPQVYTLPPSQEEMTKNQVSLTCLVKGFYPSDIAVEWESNGQPENNYKTTPPVLDSDGSFFLYSRLTVDKSRWQEGNVFSCSVMHEALHNHYTQKSLSLSPGKGGGGSGGGGSIPPHVQKSVNNDMIVTDNNGAVKFPQLCKFCDVRFSTCDNQKSCMSNCSITSICEKPQEVCVAVWRKNDENITLETVCHDPKLPYHDFILEDAASPKCIMKEKKKPGETFFMCSCSSDECNDNIIFSEEYNTSNPD
light: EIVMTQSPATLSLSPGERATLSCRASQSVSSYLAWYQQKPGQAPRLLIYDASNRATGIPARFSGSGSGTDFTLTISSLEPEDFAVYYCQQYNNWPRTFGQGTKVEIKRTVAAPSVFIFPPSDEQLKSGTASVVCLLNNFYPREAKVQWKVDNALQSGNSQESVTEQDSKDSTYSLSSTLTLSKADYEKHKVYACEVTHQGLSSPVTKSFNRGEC

- Kd (PD-1 Fc fusion protein [2]): 0.321 nM
- IC50, inhibition of TGF-β1 induced reporter gene activity (HEK-Blue TGF-β cells, SEAP) (TGF-β1 [3]): 0.0545 nM
B4: Anti-PD1 (nVL1-nVH8).IgG4-TGFbRII (antibody)
heavy: EVQLVQSGGGVVQPGRSLRLSCAASGFTFSSYGMHWVRQAPGKGLEWVAVIWYDGSNKYYADSVKGRFTISRDNSKNTLYLQMNSLRAEDTAVYYCATNNDYWGQGTLVTVSSASTKGPSVFPLAPCSRSTSESTAALGCLVKDYFPEPVTVSWNSGALTSGVHTFPAVLQSSGLYSLSSVVTVPSSSLGTKTYTCNVDHKPSNTKVDKRVESKYGPPCPSCPAPEFLGGPSVFLFPPKPKDTLMISRTPEVTCVVVDVSQEDPEVQFNWYVDGVEVHNAKTKPREEQFNSTYRVVSVLTVLHQDWLNGKEYKCKVSNKGLPSSIEKTISKAKGQPREPQVYTLPPSQEEMTKNQVSLTCLVKGFYPSDIAVEWESNGQPENNYKTTPPVLDSDGSFFLYSRLTVDKSRWQEGNVFSCSVMHEALHNHYTQKSLSLSPGKGGGGSGGGGSIPPHVQKSVNNDMIVTDNNGAVKFPQLCKFCDVRFSTCDNQKSCMSNCSITSICEKPQEVCVAVWRKNDENITLETVCHDPKLPYHDFILEDAASPKCIMKEKKKPGETFFMCSCSSDECNDNIIFSEEYNTSNPD
light: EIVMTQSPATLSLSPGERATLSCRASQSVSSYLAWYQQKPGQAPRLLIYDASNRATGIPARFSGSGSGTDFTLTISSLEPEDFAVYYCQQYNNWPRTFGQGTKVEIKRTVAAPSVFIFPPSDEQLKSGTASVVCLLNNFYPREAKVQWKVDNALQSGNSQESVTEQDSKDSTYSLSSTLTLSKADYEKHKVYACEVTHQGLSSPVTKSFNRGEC

- Kd (PD-1 Fc fusion protein [2]): 0.0148 nM
B7: Anti-PD1 (nVL1-nVH3).IgG4 (antibody, V domains shown)
VH: QVQLVESGGGVVQPGRSLRLDCKASGITFSNSGMHWVRQAPGKGLEWVAVIWYDGSKRYYADSVKGRFTISRDNSKNTLFLQMNSLRAEDTAVYYCATNNDYWGQGTLVTVSS
VL: EIVMTQSPATLSLSPGERATLSCRASQSVSSYLAWYQQKPGQAPRLLIYDASNRATGIPARFSGSGSGTDFTLTISSLEPEDFAVYYCQQYNNWPRTFGQGTKVEIK
notes: IgG4

- Kd (PD-1 Fc fusion protein [2]): 0.0141 nM
B8: Anti-PD1 (nVL1-nVH3).IgG4 (S108P) (antibody, V domains shown)
VH: QVQLVESGGGVVQPGRSLRLDCKASGITFSNSGMHWVRQAPGKGLEWVAVIWYDGSKRYYADSVKGRFTISRDNSKNTLFLQMNSLRAEDTAVYYCATNNDYWGQGTLVTVSS
VL: EIVMTQSPATLSLSPGERATLSCRASQSVSSYLAWYQQKPGQAPRLLIYDASNRATGIPARFSGSGSGTDFTLTISSLEPEDFAVYYCQQYNNWPRTFGQGTKVEIK
